The text below walks through data of patent US20140011734A1 (Sanofi, published 2014).

B1: Cyclo[Leu-His-Asn-Leu-NH-(CH2)3-CO-Asn-Thr-Glu-Arg-Met-Ala] (peptide)
peptide: cyclo(LHNL[GABA]NTERMA)
SMILES: CSCC[C@@H]1NC(=O)[C@H](CCCNC(=N)N)NC(=O)[C@H](CCC(=O)O)NC(=O)[C@H]([C@@H](C)O)NC(=O)[C@H](CC(N)=O)NC(=O)CCCNC(=O)[C@H](CC(C)C)NC(=O)[C@H](CC(N)=O)NC(=O)[C@H](Cc2c[nH]cn2)NC(=O)[C@H](CC(C)C)NC(=O)[C@H](C)NC1=O
B2: Cyclo[Leu-His-Asn-Leu-NH-(CH2)2-CO-Ala-Thr-Glu-Arg-Met-Ala] (peptide)
peptide: cyclo(LHNL[βAla]ATERMA)
SMILES: CSCC[C@@H]1NC(=O)[C@H](CCCNC(=N)N)NC(=O)[C@H](CCC(=O)O)NC(=O)[C@H]([C@@H](C)O)NC(=O)[C@H](C)NC(=O)CCNC(=O)[C@H](CC(C)C)NC(=O)[C@H](CC(N)=O)NC(=O)[C@H](Cc2c[nH]cn2)NC(=O)[C@H](CC(C)C)NC(=O)[C@H](C)NC1=O
B3: Cyclo[Nle-His-Asn-Leu-NH-(CH2)6-CO-Thr-Glu-Arg-Met-Ala] (peptide)
peptide: cyclo([Nle]HNL[Ahp]TERMA)
SMILES: CCCC[C@@H]1NC(=O)[C@H](C)NC(=O)[C@H](CCSC)NC(=O)[C@H](CCCNC(=N)N)NC(=O)[C@H](CCC(=O)O)NC(=O)[C@H]([C@@H](C)O)NC(=O)CCCCCCNC(=O)[C@H](CC(C)C)NC(=O)[C@H](CC(N)=O)NC(=O)[C@H](Cc2c[nH]cn2)NC1=O
B4: Cyclo[Leu-D-His-Asn-Leu-NH-(CH2)6-CO-Thr-Glu-Arg-Met-Ala] (peptide)
peptide: cyclo(L[dH]NL[Ahp]TERMA)
SMILES: CSCC[C@@H]1NC(=O)[C@H](CCCNC(=N)N)NC(=O)[C@H](CCC(=O)O)NC(=O)[C@H]([C@@H](C)O)NC(=O)CCCCCCNC(=O)[C@H](CC(C)C)NC(=O)[C@H](CC(N)=O)NC(=O)[C@@H](Cc2c[nH]cn2)NC(=O)[C@H](CC(C)C)NC(=O)[C@H](C)NC1=O
B5: Cyclo[Leu-His-Asn-Leu-NH-X4-X3-X2-X1-CO-Thr-Glu-Arg-Met-Ala] of example 3 (peptide)
peptide: cyclo(LHNL[4‑aminomethylphenylacetic acid]TERMA)
SMILES: CSCC[C@@H]1NC(=O)[C@H](CCCNC(=N)N)NC(=O)[C@H](CCC(=O)O)NC(=O)[C@H]([C@@H](C)O)NC(=O)Cc2ccc(cc2)CNC(=O)[C@H](CC(C)C)NC(=O)[C@H](CC(N)=O)NC(=O)[C@H](Cc2c[nH]cn2)NC(=O)[C@H](CC(C)C)NC(=O)[C@H](C)NC1=O
B6: Cyclo[Leu-His-Asn-Leu-NH-(CH2)5-CO-Thr-Glu-Arg-Met-Ala] (peptide)
peptide: cyclo(LHNL[Ahx]TERMA)
SMILES: CSCC[C@@H]1NC(=O)[C@H](CCCNC(=N)N)NC(=O)[C@H](CCC(=O)O)NC(=O)[C@H]([C@@H](C)O)NC(=O)CCCCCNC(=O)[C@H](CC(C)C)NC(=O)[C@H](CC(N)=O)NC(=O)[C@H](Cc2c[nH]cn2)NC(=O)[C@H](CC(C)C)NC(=O)[C@H](C)NC1=O
B7: Cyclo[Leu-His-Asn-Leu-NH-(CH2)6-CO-Thr-Glu-Arg-Met-Nva] (peptide)
peptide: cyclo(LHNL[Ahp]TERM[Nva])
SMILES: CCC[C@@H]1NC(=O)[C@H](CCSC)NC(=O)[C@H](CCCNC(=N)N)NC(=O)[C@H](CCC(=O)O)NC(=O)[C@H]([C@@H](C)O)NC(=O)CCCCCCNC(=O)[C@H](CC(C)C)NC(=O)[C@H](CC(N)=O)NC(=O)[C@H](Cc2c[nH]cn2)NC(=O)[C@H](CC(C)C)NC1=O
B8: Cyclo[Leu-His-Asn-Leu-NH-(CH2)6-CO-Thr-Glu-Dpr-Met-Ala] (peptide)
peptide: cyclo(LHNL[Ahp]TE[Dap]MA)
SMILES: CSCC[C@@H]1NC(=O)[C@H](CN)NC(=O)[C@H](CCC(=O)O)NC(=O)[C@H]([C@@H](C)O)NC(=O)CCCCCCNC(=O)[C@H](CC(C)C)NC(=O)[C@H](CC(N)=O)NC(=O)[C@H](Cc2c[nH]cn2)NC(=O)[C@H](CC(C)C)NC(=O)[C@H](C)NC1=O
B9: Cyclo[Ile-His-Asn-Leu-NH-(CH2)6-CO-Thr-Glu-Arg-Met-Ala] (peptide)
peptide: cyclo(IHNL[Ahp]TERMA)
SMILES: CC[C@H](C)[C@@H]1NC(=O)[C@H](C)NC(=O)[C@H](CCSC)NC(=O)[C@H](CCCNC(=N)N)NC(=O)[C@H](CCC(=O)O)NC(=O)[C@H]([C@@H](C)O)NC(=O)CCCCCCNC(=O)[C@H](CC(C)C)NC(=O)[C@H](CC(N)=O)NC(=O)[C@H](Cc2c[nH]cn2)NC1=O
B10: Cyclo[Leu-His-Asn-Leu-NH-(CH2)6-CO-Thr-Glu-Arg-Met-Arg] (peptide)
peptide: cyclo(LHNL[Ahp]TERMR)
SMILES: CSCC[C@@H]1NC(=O)[C@H](CCCNC(=N)N)NC(=O)[C@H](CCC(=O)O)NC(=O)[C@H]([C@@H](C)O)NC(=O)CCCCCCNC(=O)[C@H](CC(C)C)NC(=O)[C@H](CC(N)=O)NC(=O)[C@H](Cc2c[nH]cn2)NC(=O)[C@H](CC(C)C)NC(=O)[C@H](CCCNC(=N)N)NC1=O
B11: Cyclo[Leu-His-Asn-Leu-NH-(CH2)6-CO-Ser-Glu-Arg-Met-Ala] (peptide)
peptide: cyclo(LHNL[Ahp]SERMA)
SMILES: CSCC[C@@H]1NC(=O)[C@H](CCCNC(=N)N)NC(=O)[C@H](CCC(=O)O)NC(=O)[C@H](CO)NC(=O)CCCCCCNC(=O)[C@H](CC(C)C)NC(=O)[C@H](CC(N)=O)NC(=O)[C@H](Cc2c[nH]cn2)NC(=O)[C@H](CC(C)C)NC(=O)[C@H](C)NC1=O
B12: Cyclo[Leu-His-Asn-Leu-NH-(CH2)6-CO-Thr-Glu-Arg-Ile-Ala] (peptide)
peptide: cyclo(LHNL[Ahp]TERIA)
SMILES: CC[C@H](C)[C@@H]1NC(=O)[C@H](CCCNC(=N)N)NC(=O)[C@H](CCC(=O)O)NC(=O)[C@H]([C@@H](C)O)NC(=O)CCCCCCNC(=O)[C@H](CC(C)C)NC(=O)[C@H](CC(N)=O)NC(=O)[C@H](Cc2c[nH]cn2)NC(=O)[C@H](CC(C)C)NC(=O)[C@H](C)NC1=O
B13: Cyclo[Leu-His-Asn-Leu-NH-(CH2)6-CO-Leu-Glu-Arg-Met-Ala] (peptide)
peptide: cyclo(LHNL[Ahp]LERMA)
SMILES: CSCC[C@@H]1NC(=O)[C@H](CCCNC(=N)N)NC(=O)[C@H](CCC(=O)O)NC(=O)[C@H](CC(C)C)NC(=O)CCCCCCNC(=O)[C@H](CC(C)C)NC(=O)[C@H](CC(N)=O)NC(=O)[C@H](Cc2c[nH]cn2)NC(=O)[C@H](CC(C)C)NC(=O)[C@H](C)NC1=O
B14: Cyclo[Leu-His-Asn-Leu-NH-(CH2)6-CO-His-Glu-Arg-Met-Ala] (peptide)
peptide: cyclo(LHNL[Ahp]HERMA)
SMILES: CSCC[C@@H]1NC(=O)[C@H](CCCNC(=N)N)NC(=O)[C@H](CCC(=O)O)NC(=O)[C@H](Cc2c[nH]cn2)NC(=O)CCCCCCNC(=O)[C@H](CC(C)C)NC(=O)[C@H](CC(N)=O)NC(=O)[C@H](Cc2c[nH]cn2)NC(=O)[C@H](CC(C)C)NC(=O)[C@H](C)NC1=O
B15: Cyclo[Leu-His-Asn-Leu-NH-(CH2)6-CO-Asp-Glu-Arg-Met-Ala] (peptide)
peptide: cyclo(LHNL[Ahp]DERMA)
SMILES: CSCC[C@@H]1NC(=O)[C@H](CCCNC(=N)N)NC(=O)[C@H](CCC(=O)O)NC(=O)[C@H](CC(=O)O)NC(=O)CCCCCCNC(=O)[C@H](CC(C)C)NC(=O)[C@H](CC(N)=O)NC(=O)[C@H](Cc2c[nH]cn2)NC(=O)[C@H](CC(C)C)NC(=O)[C@H](C)NC1=O
B16: Cyclo[Leu-His-Asn-Leu-NH-(CH2)6-CO-Thr-Glu-Arg-Met-Gln] (peptide)
peptide: cyclo(LHNL[Ahp]TERMQ)
SMILES: CSCC[C@@H]1NC(=O)[C@H](CCCNC(=N)N)NC(=O)[C@H](CCC(=O)O)NC(=O)[C@H]([C@@H](C)O)NC(=O)CCCCCCNC(=O)[C@H](CC(C)C)NC(=O)[C@H](CC(N)=O)NC(=O)[C@H](Cc2c[nH]cn2)NC(=O)[C@H](CC(C)C)NC(=O)[C@H](CCC(N)=O)NC1=O
B17: Cyclo[Leu-His-Asn-Leu-NH-(CH2)6-CO-Thr-Glu-Lys-Met-Ala] (peptide)
peptide: cyclo(LHNL[Ahp]TEKMA)
SMILES: CSCC[C@@H]1NC(=O)[C@H](CCCCN)NC(=O)[C@H](CCC(=O)O)NC(=O)[C@H]([C@@H](C)O)NC(=O)CCCCCCNC(=O)[C@H](CC(C)C)NC(=O)[C@H](CC(N)=O)NC(=O)[C@H](Cc2c[nH]cn2)NC(=O)[C@H](CC(C)C)NC(=O)[C@H](C)NC1=O

Starred links: 1 amine or outer side, 2 acyl side, 3 side chain; linkers in the order of their positions; H or OH if unused. Non-standard residues stand in square brackets, D forms with d. 4‑aminomethylphenylacetic acid = (4-aminomethyl-phenyl)-acetic acid ring linker, O=C(Cc1ccc(CN[*:1])cc1)[*:2]; Chg = N[C@H](C(=O)O)C1CCCCC1; Nle = CCCC[C@H](N)C(=O)O; Nva = CCC[C@H](N)C(=O)O; Dap = NC[C@H](N)C(=O)O; Ahp = NCCCCCCC(=O)O; Ahx = NCCCCCC(=O)O; GABA = NCCCC(=O)O; βAla = NCCC(=O)O

The target of the assay is T1, blood platelet receptor glycoprotein Ib-IX-V complex (GPIb) (human, UniProt P07359 17-652; P13224 26-206; P14770 17-177; P40197 17-560).
T1 construct: whole, on cells; also called GPIb complex; GPIb receptor
T1 sequence (P07359 17-652, chain 1 of 4): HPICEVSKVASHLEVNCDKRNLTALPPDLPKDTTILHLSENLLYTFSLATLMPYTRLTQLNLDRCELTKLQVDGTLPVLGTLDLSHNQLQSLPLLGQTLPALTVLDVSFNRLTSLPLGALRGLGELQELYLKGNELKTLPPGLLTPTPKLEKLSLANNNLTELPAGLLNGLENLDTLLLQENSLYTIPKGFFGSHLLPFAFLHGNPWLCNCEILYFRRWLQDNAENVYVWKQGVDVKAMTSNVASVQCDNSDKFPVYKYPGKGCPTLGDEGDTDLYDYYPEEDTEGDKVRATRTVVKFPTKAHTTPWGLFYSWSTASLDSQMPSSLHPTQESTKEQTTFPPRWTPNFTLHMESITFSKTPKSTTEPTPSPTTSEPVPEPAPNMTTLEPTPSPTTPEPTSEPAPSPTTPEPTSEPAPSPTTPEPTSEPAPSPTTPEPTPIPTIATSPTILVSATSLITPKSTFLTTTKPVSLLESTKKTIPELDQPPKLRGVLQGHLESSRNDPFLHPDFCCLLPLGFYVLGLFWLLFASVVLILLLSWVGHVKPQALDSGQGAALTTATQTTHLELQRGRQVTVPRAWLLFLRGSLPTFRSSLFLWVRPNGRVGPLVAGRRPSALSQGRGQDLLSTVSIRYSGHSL
T1 sequence (P13224 26-206, chain 2 of 4): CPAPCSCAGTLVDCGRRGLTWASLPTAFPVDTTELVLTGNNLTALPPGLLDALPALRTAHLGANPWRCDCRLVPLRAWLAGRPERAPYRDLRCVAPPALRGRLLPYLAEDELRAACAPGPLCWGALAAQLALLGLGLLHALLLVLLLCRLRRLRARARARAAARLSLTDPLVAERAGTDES
T1 sequence (P14770 17-177, chain 3 of 4): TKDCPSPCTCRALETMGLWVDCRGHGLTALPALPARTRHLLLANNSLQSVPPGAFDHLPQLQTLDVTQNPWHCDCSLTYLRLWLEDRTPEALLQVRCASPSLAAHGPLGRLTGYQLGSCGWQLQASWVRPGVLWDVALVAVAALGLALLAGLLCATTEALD
T1 sequence (P40197 17-560, chain 4 of 4): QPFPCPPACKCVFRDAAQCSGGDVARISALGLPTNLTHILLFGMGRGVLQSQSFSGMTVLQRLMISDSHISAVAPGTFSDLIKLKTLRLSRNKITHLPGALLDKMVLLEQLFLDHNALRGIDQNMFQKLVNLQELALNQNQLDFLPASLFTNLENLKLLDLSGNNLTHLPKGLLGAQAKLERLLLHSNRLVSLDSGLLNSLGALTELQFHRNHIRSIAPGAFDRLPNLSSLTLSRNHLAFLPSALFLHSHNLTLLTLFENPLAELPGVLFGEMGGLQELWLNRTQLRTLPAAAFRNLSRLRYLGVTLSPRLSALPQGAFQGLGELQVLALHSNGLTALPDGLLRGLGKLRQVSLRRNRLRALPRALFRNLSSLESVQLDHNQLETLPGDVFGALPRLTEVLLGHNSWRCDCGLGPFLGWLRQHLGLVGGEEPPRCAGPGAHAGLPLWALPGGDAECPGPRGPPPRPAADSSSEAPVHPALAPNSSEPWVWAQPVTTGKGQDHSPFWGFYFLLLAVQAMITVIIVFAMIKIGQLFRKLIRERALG
In words: inhibition of static adhesion of human platelets to coated vWF-A1; grade B = IC50 between 1 µM and 10 µM. The protocol:
Platelet rich plasma was carefully transferred again to fresh containers, PGE1 (0.5 μg/ml, Sigma) was added and the suspension was allowed to rest for 5 min. This was followed by another centrifugation step for 15 min at 360 g. The supernatant was discarded and the cell pellets were carefully resuspended in tyrode buffer (NaCl, 137 mM (Sigma S-3014); KCl, 2.7 mM (Sigma P-9541); NaHCO₃,12 mM (Riedel deHaen 31437); NaH₂PO₄×2H₂O, 0.36 mM (Merck 6345); MgCl₂×6 H₂O, 1 mM (Sigma M-2670); Hepes, 10 mM (Sigma H-1016); glucose, 5.6 mM (Merck 8342); BSA, 0.1% (Sigma A7906)), and PGE1 (0.25 μg/ml) was added. After 5 min of resting the suspension was spun down for 15 min at 300 g. The supernatant was discarded and the pellets were carefully resuspended in TBS buffer (Tris-HCl, 50 mM (Fluka 93371); NaCl, 120 mM (Sigma S-3014); KCl, 2.7 mM (Sigma P-9541); CaCl₂, 0.05 mM (Sigma C-3306); MgCl₂×6 H₂O, 2 mM (Sigma M-2670); BSA, 0.1% (Sigma A7906); pH 7.4). The platelet count was adjusted to 2×10⁵ cells/μl, and the suspensions from individual donors were pooled at this stage. The platelets were allowed to rest for 30 min at room temperature before calcein AM (2.5 μM per 2×10⁵ cells/pi (Molecular Probes C-3099)) was added. This was followed by 15 min incubation in the dark. Cells were diluted to 5×10⁴ cells/μl and ReoPro (3 μg/ml (Centocor B. V., Leiden, N L)) was added, followed by a 10 min incubation period in the dark before adding the platelets to the assay plates.
96 well plates (Greiner hb, black, clear bottom, F, 655097) were coated with human recombinant vWF-A1 domain (1.5 μg/well, AA 475-706, expressed in E. coli) in Tris buffer (pH 7.4; Tris-HCl, 25 mM; NaCl, 150 mM) and incubated for 1 h at room temperature. After washing the wells 3× with TBS, blocking buffer (TBS with 5% BSA) was added followed by an incubation for 1 h. The wells were washed again 3× with TBS before 200 μl TBS were added to each well, preventing them from drying out. TBS was flicked out and serial dilutions of the test compound were added. The washed and calcein AM labeled thrombocytes were added to the wells (2.5×10⁶ cells/well). Following an adhesion period of 1.5 h in the dark the wells were washed 3× with TBS. Measurement of fluorescence per well was performed in a SpectraMax M5 reader (Molecular Devices). From the raw data % inhibition and IC₅₀ values were calculated.
The IC50 is the concentration that inhibits the measured activity by half. A higher IC50 goes with lower potency. B1 showed a 50% inhibitory concentration (IC50) of 1 to 10 µM.

The molecule B2 registered an IC50 of 1 to 10 µM.

B3 gave an IC50 of 1 to 10 µM.

B4 yielded a concentration for half-maximal inhibition (IC50) of 1 to 10 µM.

Molecule B5 showed an IC50 of 1 to 10 µM.

Molecule B6 registered an IC50 of 1 to 10 µM.

The molecule B7 showed an IC50 of 1 to 10 µM.

In turn, B8 had an IC50 of 1 to 10 µM.

As to cyclo([Chg]HNL[Ahp]TERMA) [Cyclo[Chg-His-Asn-Leu-NH-(CH2)6-CO-Thr-Glu-Arg-Met-Ala]], the half-inhibitory concentration (IC50) fell in the range of 1 to 10 µM.

As to B9, the concentration for half-maximal inhibition (IC50) lay within 1 to 10 µM.

The molecule B10 came in with a half-inhibitory concentration (IC50) of 1 to 10 µM.

B11: the IC50 lay within 1 to 10 µM.

The molecule B12 returned an IC50 of 1 to 10 µM.

On to B13, for which the concentration for half-maximal inhibition (IC50) is 1 to 10 µM.

For B14, the concentration for half-maximal inhibition (IC50) lay within 1 to 10 µM.

The molecule B15 yielded an IC50 of 1 to 10 µM.

With B16, the IC50 lay in the range of 1 to 10 µM.

B17: the IC50 was in the range of 1 to 10 µM.
